# Measured values reported in US20250019451A1 (published 2025).
# Like-named read-outs stand apart in the source and are kept apart here.
# B1: HFB11-19 (antibody, V domains shown)
# VH: QVQLQQSGAELVKPGASVKLSCKASGYTFTDYIIHWVKQRSGQGLEWIGWFSPRNNYVKYNERFTDKATLTADKSSNTVYMELSSLTSEDSAVYFCSRHGRNSIGFAYWGQGTLVTVSA
# VL: DIVMTQAAPSVPVTPGESVSISCRSSKSLLNSNGNTYLYWFLQRPGQSPQLLIYRMSNLASGVPDRFSGSGSGTAFTLRISRVEAEDVGVYYCMQHLEYPYTFGGGTKLEIK
# B2: HFB11-21 (antibody, V domains shown)
# VH: QVQLQQPGAELVKPGASVKLSCKASGYTFISYWMHWVKQRPGRGLEWIGRIDPNSGKTKYNEKFKTKATLTVDKSSSTAYMHLNSLTSDDSAVYYCAREGWGDYWGQGTTLTVSS
# VL: DIVLTQSPASLAVSLGQRATISCRASESVDNYGISFMHWYQQKPGQPPRLLIYRASNLASGIPARFSGSGSSTDFTLTINPVETDDIATYYCQQSNKDPRTFGGGTKLEIK
# B3: HFB11-3 (antibody, V domains shown)
# VH: EVQLVESGGGLVQPQGSLKLSCAASGFSFNTYAMNWVRQAPGKGLQWVARIRSKSNNYATYYADSVKDRFTISRDDSESMLYLQMNNLKTEDAAMYYCVRGKDANYFYAMDYWGQGTSVTVSS
# VL: DIVMTQAAPSVPVTPGESVSISCRSSKSLLHSNGNTYLYWFLQRPGQSPQLLIYRMSNLASGVPDRFSGSGSGTAFTLRISRVEAEDVGVYYCMQHLEYPFTFGAGTKLELK
# B4: HFB11-10 (antibody, V domains shown)
# VH: EVQLVETGGGLVQPKGSLKLSCAASGFRFNTNAMNWVRQAPGKDLEWVARIRSKSNNYATYYADSVKDRFTISRDDSQSMLYLQMNNVKTEDTAMYYCVRGSDNNYYYAMDYWGQGTSVTVSS
# VL: DIVMTQAAPSVPVTPGESVSISCRSSKSLLHSNGNTYLYWFLQRPGQSPQLLIYRMSNLASGVPDRFSGSGSGTAFTLRISRVEAEDVGVYYCMQHLEYPFTFGSGTKLEIK
# B5: HFB11-5 (antibody, V domains shown)
# VH: EVQLVESGGGLVQPRGSLKLSCTASGFSFNAYAMNWVRQAPGKGLEWVARIRTKSNNYATYYADSVKDRFTISRDDSESMLYLQMKNLKTEDTAMYYCVRGGYGNGGYYFDYWGQGTTLTVSS
# VL: DIVMTQAAPSVTVTPGESASISCRSSKSLLHRNGNSYLYWFLQRPGQSPQLLIYRISNLASGVPDRFSGSGSGTAFTLRISRVEAEDVGVYYCMQHLEYPFTFGSGTKLEIK
# B6: HFB11-2 (antibody, V domains shown)
# VH: EVQLVESGGGLVQPKGSLKLSCAASGFSFNTYAMNWVRQAPGKGLEWVARIRSKSNNYATYYADSVKDRFTISRDDSERMLYLQMNNLKTEDTAMYYCVRGGSYYSNHYFDYWGQGTTLTVSS
# VL: DIVMTQAAPSVPVTPGESVSISCRSSKSLLHSNGNTYLYWFLQRPGQSPQLLIYQMSNLASGVPDRFSGSGSGTAFTLRISRVEAEDVGVYYCMQHLEYPFTFGAGTKLELK
# B7: HFB11-10 parental antibody (non-humanized) in ADCC enhanced format (antibody, V domains shown)
# VH: EVQLVETGGGLVQPKGSLKLSCAASGFRFNTNAMNWVRQAPGKDLEWVARIRSKSNNYATYYADSVKDRFTISRDDSQSMLYLQMNNVKTEDTAMYYCVRGSDNNYYYAMDYWGQGTSVTVSS
# VL: DIVMTQAAPSVPVTPGESVSISCRSSKSLLHSNGNTYLYWFLQRPGQSPQLLIYRMSNLASGVPDRFSGSGSGTAFTLRISRVEAEDVGVYYCMQHLEYPFTFGSGTKLEIK
# B8: HFB11-8 (antibody, V domains shown)
# VH: EVQLVETGGGLVQPKGSLKLSCAASGFRFNTNAMNWVRQAPGKGLEWVARIRSKSNNYATHYVDSVKDRFTVSRDDSQSMLYLQMNNLKAEDTAMYYCVRGSDNNYYYAMDYWGQGTSVTVSS
# VL: DIVMTQAAPSVPVTPGESVSISCRSSKSLLHSNGNTYLYWFLQRPGQSPQLLIYRMSNLASGVPDRFSGSGSGTSFTLRISRVEVEDVGVYYCMQHLEYPFTFGSGTKLEIK
# Experiments:
# human CCR8 [1] = biological target: T1, human CCR8 (UniProt P51685 1-355); test: FACS cell binding
# human CCR8 [2] = biological target: T1, human CCR8; test: CCL1 blocking
# human CCR8 [3] = biological target: T1, human CCR8; test: CCL1 blocking; remark: listed apart in the source
# mouse CCR8 = biological target: T2, mouse CCR8 (UniProt P56484 1-353); test: FACS cell binding
# T2 chain: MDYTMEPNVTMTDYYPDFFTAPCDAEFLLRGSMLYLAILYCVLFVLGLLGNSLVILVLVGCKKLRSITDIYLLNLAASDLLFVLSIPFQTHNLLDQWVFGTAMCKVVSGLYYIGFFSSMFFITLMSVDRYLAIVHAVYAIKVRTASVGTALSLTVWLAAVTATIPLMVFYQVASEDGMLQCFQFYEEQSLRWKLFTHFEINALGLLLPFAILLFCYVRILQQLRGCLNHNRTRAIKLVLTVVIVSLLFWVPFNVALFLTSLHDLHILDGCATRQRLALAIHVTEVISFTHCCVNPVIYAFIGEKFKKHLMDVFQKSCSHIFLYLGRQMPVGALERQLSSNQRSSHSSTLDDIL
# human CCR8 [4] = biological target: T1, human CCR8; test: FACS cell binding; remark: listed apart in the source
EC50 (human CCR8 [1]),IC50 (human CCR8 [2]),IC50 (human CCR8 [3]),EC50 (mouse CCR8),EC50 (human CCR8 [4]),Binder
0.86 nM,–,–,–,–,B1
9.05 nM,–,–,–,–,B2
1.63 nM,1.3 nM,–,–,–,B3
0.57 nM,0.428 nM,0.428 nM,–,–,B4
0.49 nM,0.413 nM,–,–,–,B5
0.98 nM,1.33 nM,–,0.4 nM,–,B6
–,–,–,–,0.37 nM,B7
0.53 nM,0.452 nM,–,–,–,B8
